{"source": "patent US20160264649A1", "experiment_in_all_cases": "cell-based or functional assay", "key": {"[1]": {"target": "HIV-1 92RW024 Env (HIV-1)"}, "[2]": {"target": "HIV-1 92RW026 Env (HIV-1)"}, "[3]": {"target": "HIV-1 92UG037 Env (HIV-1)"}, "[4]": {"target": "HIV-1 MGRM-A-001 Env (HIV-1)"}, "[5]": {"target": "HIV-1 MGRM-A-008 Env (HIV-1)"}, "[6]": {"target": "HIV-1 MGRM-A-011 Env (HIV-1)"}, "[7]": {"target": "HIV-1 92BR020 Env on pseudovirus (HIV-1)"}, "[8]": {"target": "HIV-1 92TH021 Env (HIV-1)"}, "[9]": {"target": "HIV-1 93MW959 Env on pseudovirus (HIV-1)"}, "[10]": {"target": "HIV-1 94UG114 Env (HIV-1)"}, "[11]": {"target": "HIV-1 97ZA012 Env on pseudovirus (HIV-1)"}, "[12]": {"target": "HIV-1 98CN009 Env on pseudovirus (HIV-1)"}, "[13]": {"target": "HIV-1 APV_13 Env on pseudovirus (HIV-1)"}, "[14]": {"target": "HIV-1 APV_6 Env on pseudovirus (HIV-1)"}, "[15]": {"target": "HIV-1 CAAN.A2 (Acute) Env on pseudovirus (HIV-1)"}, "[16]": {"target": "HIV-1 IAVI-C3 Env (HIV-1)"}, "[17]": {"target": "HIV-1 LAVI_C22 Env on pseudovirus (HIV-1)"}, "[18]": {"target": "HIV-1 LAVI_C3 Env on pseudovirus (HIV-1)"}, "[19]": {"target": "HIV-1 MGRM-AE-003 Env (HIV-1)"}, "[20]": {"target": "HIV-1 MGRM-AG-005 Env (HIV-1)"}, "[21]": {"target": "HIV-1 MGRM-AG-006 Env (HIV-1)"}, "[22]": {"target": "HIV-1 MGRM-AG-012 Env (HIV-1)"}, "[23]": {"target": "HIV-1 MGRM-AG-013 Env (HIV-1)"}, "[24]": {"target": "HIV-1 MGRM-C-008 Env on pseudovirus (HIV-1)"}, "[25]": {"target": "HIV-1 MGRM-C-009 Env on pseudovirus (HIV-1)"}, "[26]": {"target": "HIV-1 MGRM-C-010 Env on pseudovirus (HIV-1)"}, "[27]": {"target": "HIV-1 MGRM-C-012 Env on pseudovirus (HIV-1)"}, "[28]": {"target": "HIV-1 MGRM-C-013 Env on pseudovirus (HIV-1)"}, "[29]": {"target": "HIV-1 MGRM-C-022 Env on pseudovirus (HIV-1)"}, "[30]": {"target": "HIV-1 MGRM-C-025 Env on pseudovirus (HIV-1)"}, "[31]": {"target": "HIV-1 MGRM-Chronic-B-002 Env on pseudovirus (HIV-1)"}, "[32]": {"target": "HIV-1 MGRM-Chronic-B-017 Env on pseudovirus (HIV-1)"}, "[33]": {"target": "HIV-1 MGRM-D-002 Env (HIV-1)"}, "[34]": {"target": "HIV-1 MGRM-D-003 Env (HIV-1)"}, "[35]": {"target": "HIV-1 MGRM-D-012 Env (HIV-1)"}, "[36]": {"target": "HIV-1 MGRM-D-013 Env (HIV-1)"}, "[37]": {"target": "HIV-1 MGRM-D-014 Env (HIV-1)"}, "[38]": {"target": "HIV-1 MGRM-D-019 Env (HIV-1)"}, "[39]": {"target": "HIV-1 MGRM-D-020 Env (HIV-1)"}, "[40]": {"target": "HIV-1 MGRM-D-022 Env (HIV-1)"}, "[41]": {"target": "HIV-1 MGRM-D-024 Env (HIV-1)"}, "[42]": {"target": "HIV-1 MGRM-D-028 Env (HIV-1)"}, "[43]": {"target": "HIV-1 MGRM-F1-017 Env (HIV-1)"}, "[44]": {"target": "HIV-1 MGRM-F1-018 Env (HIV-1)"}, "[45]": {"target": "HIV-1 MGRM-F1-020 Env (HIV-1)"}, "[46]": {"target": "HIV-1 MGRM-F1-023 Env (HIV-1)"}, "[47]": {"target": "HIV-1 MGRM-G-016 Env (HIV-1)"}, "[48]": {"target": "HIV-1 MGRM-G-024 Env (HIV-1)"}, "[49]": {"target": "HIV-1 MGRM-G-025 Env (HIV-1)"}, "[50]": {"target": "HIV-1 NL43 Env on pseudovirus (HIV-1)"}, "[51]": {"target": "HIV-1 SF162 Env on pseudovirus (HIV-1) (UniProt P19550)"}, "[52]": {"target": "HIV-1 VLGCB3 Env on pseudovirus (HIV-1)"}, "[53]": {"target": "aMLV envelope"}}, "data": [{"substance": "4E10 (antibody)", "values": [{"measurement": "neutralization IC50", "setting": "[1]", "result": 8.88, "unit": "µg/mL"}, {"measurement": "neutralization IC50", "setting": "[2]", "result": 12.9, "unit": "µg/mL"}, {"measurement": "neutralization IC50", "setting": "[3]", "result": 8.84, "unit": "µg/mL"}, {"measurement": "neutralization IC50", "setting": "[4]", "result": 15.1, "unit": "µg/mL"}, {"measurement": "neutralization IC50", "setting": "[5]", "result": 7.59, "unit": "µg/mL"}, {"measurement": "neutralization IC50", "setting": "[6]", "result": 2.88, "unit": "µg/mL"}, {"measurement": "IC50", "setting": "[7]", "result": "> 50", "unit": "µg/mL"}, {"measurement": "IC50 (µg/ml), pseudovirus neutralization", "setting": "[8]", "result": 1.17, "unit": "µg/mL"}, {"measurement": "neutralization IC50", "setting": "[8]", "result": 1.9, "unit": "µg/mL"}, {"measurement": "neutralization IC90", "setting": "[8]", "result": 23.5, "unit": "µg/mL"}, {"measurement": "IC50", "setting": "[9]", "result": 4.55, "unit": "µg/mL"}, {"measurement": "IC50 (µg/ml), pseudovirus neutralization", "setting": "[10]", "result": 9.72, "unit": "µg/mL"}, {"measurement": "IC50", "setting": "[11]", "result": 4.7, "unit": "µg/mL"}, {"measurement": "IC50", "setting": "[12]", "result": 2.46, "unit": "µg/mL"}, {"measurement": "IC50", "setting": "[13]", "result": 7.33, "unit": "µg/mL"}, {"measurement": "IC50", "setting": "[14]", "result": 1.1, "unit": "µg/mL"}, {"measurement": "IC50", "setting": "[15]", "result": 17.9, "unit": "µg/mL"}, {"measurement": "neutralization IC50", "setting": "[16]", "result": 5, "unit": "µg/mL"}, {"measurement": "IC50", "setting": "[17]", "result": 2.02, "unit": "µg/mL"}, {"measurement": "IC50", "setting": "[18]", "result": 2.85, "unit": "µg/mL"}, {"measurement": "IC50 (µg/ml), pseudovirus neutralization", "setting": "[19]", "result": 0.34, "unit": "µg/mL"}, {"measurement": "IC50 (µg/ml), pseudovirus neutralization", "setting": "[20]", "result": 2.13, "unit": "µg/mL"}, {"measurement": "IC50 (µg/ml), pseudovirus neutralization", "setting": "[21]", "result": 1.76, "unit": "µg/mL"}, {"measurement": "IC50 (µg/ml), pseudovirus neutralization", "setting": "[22]", "result": 0.86, "unit": "µg/mL"}, {"measurement": "IC50 (µg/ml), pseudovirus neutralization", "setting": "[23]", "result": 2.61, "unit": "µg/mL"}, {"measurement": "IC50", "setting": "[24]", "result": 2.97, "unit": "µg/mL"}, {"measurement": "IC50", "setting": "[25]", "result": 0.56, "unit": "µg/mL"}, {"measurement": "IC50", "setting": "[26]", "result": 11, "unit": "µg/mL"}, {"measurement": "IC50", "setting": "[27]", "result": 0.44, "unit": "µg/mL"}, {"measurement": "IC50", "setting": "[28]", "result": 2.1, "unit": "µg/mL"}, {"measurement": "IC50", "setting": "[29]", "result": 5.71, "unit": "µg/mL"}, {"measurement": "IC50", "setting": "[30]", "result": 5.58, "unit": "µg/mL"}, {"measurement": "IC50", "setting": "[31]", "result": 2.19, "unit": "µg/mL"}, {"measurement": "IC50", "setting": "[32]", "result": 2.77, "unit": "µg/mL"}, {"measurement": "IC50 (µg/ml), pseudovirus neutralization", "setting": "[33]", "result": 9.44, "unit": "µg/mL"}, {"measurement": "IC50 (µg/ml), pseudovirus neutralization", "setting": "[34]", "result": 2.49, "unit": "µg/mL"}, {"measurement": "IC50 (µg/ml), pseudovirus neutralization", "setting": "[35]", "result": 1.13, "unit": "µg/mL"}, {"measurement": "IC50 (µg/ml), pseudovirus neutralization", "setting": "[36]", "result": 5.38, "unit": "µg/mL"}, {"measurement": "IC50 (µg/ml), pseudovirus neutralization", "setting": "[37]", "result": 3.24, "unit": "µg/mL"}, {"measurement": "IC50 (µg/ml), pseudovirus neutralization", "setting": "[38]", "result": 0.04, "unit": "µg/mL"}, {"measurement": "IC50 (µg/ml), pseudovirus neutralization", "setting": "[39]", "result": "> 50", "unit": "µg/mL"}, {"measurement": "IC50 (µg/ml), pseudovirus neutralization", "setting": "[40]", "result": 16.9, "unit": "µg/mL"}, {"measurement": "IC50 (µg/ml), pseudovirus neutralization", "setting": "[41]", "result": 3.6, "unit": "µg/mL"}, {"measurement": "IC50 (µg/ml), pseudovirus neutralization", "setting": "[42]", "result": 1.28, "unit": "µg/mL"}, {"measurement": "IC50 (pseudovirus neutralization)", "setting": "[43]", "result": 4.92, "unit": "µg/mL"}, {"measurement": "IC50 (pseudovirus neutralization)", "setting": "[44]", "result": 3.6, "unit": "µg/mL"}, {"measurement": "IC50 (pseudovirus neutralization)", "setting": "[45]", "result": 0.66, "unit": "µg/mL"}, {"measurement": "IC50 (pseudovirus neutralization)", "setting": "[46]", "result": 0.44, "unit": "µg/mL"}, {"measurement": "IC50 (µg/ml), pseudovirus neutralization", "setting": "[47]", "result": 1.02, "unit": "µg/mL"}, {"measurement": "IC50 (µg/ml), pseudovirus neutralization", "setting": "[48]", "result": 1.57, "unit": "µg/mL"}, {"measurement": "IC50 (µg/ml), pseudovirus neutralization", "setting": "[49]", "result": 1.7, "unit": "µg/mL"}, {"measurement": "IC50", "setting": "[50]", "result": 4.67, "unit": "µg/mL"}, {"measurement": "IC50", "setting": "[51]", "result": 4.28, "unit": "µg/mL"}, {"measurement": "IC50", "setting": "[52]", "result": 5.76, "unit": "µg/mL"}, {"measurement": "neutralization IC50", "setting": "[53]", "result": "> 50", "unit": "µg/mL"}, {"measurement": "neutralization IC90", "setting": "[53]", "result": "> 50", "unit": "µg/mL"}]}]}
